The record followed here is paper doi:10.1101/2021.07.23.453429.

Experiment [1] has as its target cyclophilin D (UniProt P30405). Kind of experiment: SPR.
For experiment [2], the target named is cyclophilin D (UniProt P30405). Briefly: NMR titration.
Chain of cyclophilin D (P30405 43-207): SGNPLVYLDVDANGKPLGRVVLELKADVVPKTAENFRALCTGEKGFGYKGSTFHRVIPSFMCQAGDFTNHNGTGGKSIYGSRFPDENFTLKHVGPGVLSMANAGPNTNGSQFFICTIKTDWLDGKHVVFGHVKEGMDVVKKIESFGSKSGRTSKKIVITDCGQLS

For the substance p53 NTD-DBD (domain or fragment), the Kd with cyclophilin D [1] stood at 10 µM.

With “p53 N-terminal domain (NTD) (domain or fragment)”, in the experiment with cyclophilin D [1], the Kd came to 8.4 µM. In the experiment with cyclophilin D [2], this substance had a residue-based KD (CypD residue G65) of 4.1 μΜ, a residue-based KD (CypD residue I114) of 32 μΜ and a residue-based KD (CypD residue S77) of 6.6 μΜ.
